Measured values as given in US20070116673.

T1: α2 peptide KLGFFKRKYEKMTKNPDEIDETTELSS (synthetic integrin α2 cytoplasmic tail peptide)
T1 chain: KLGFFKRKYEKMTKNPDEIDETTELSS

T2: synthetic integrin α1 cytoplasmic tail peptide (RPLKKKMEKRPLKKKMEK)
T2 chain: RPLKKKMEKRPLKKKMEK

B1: endogenous TCPTP (T cell protein tyrosine phosphatase) of HeLa cells (protein)
chain: MPTTIEREFEELDTQRRWQPLYLEIRNESHDYPHRVAKFPENRNRNRYRDVSPYDHSRVKLQNAENDYINASLVDIEEAQRSYILTQGPLPNTCCHFWLMVWQQKTKAVVMLNRIVEKESVKCAQYWPTDDQEMLFKETGFSVKLLSEDVKSYYTVHLLQLENINSGETRTISHFHYTTWPDFGVPESPASFLNFLFKVRESGSLNPDHGPAVIHCSAGIGRSGTFSLVDTCLVLMEKGDDINIKQVLLNMRKYRMGLIQTPDQLRFSYMAIIEGAKCIKGDSSIQKRWKELSKEDLSPAFDHSPNKIMTEKYNGNRIGLEEEKLTGDRCTGLSSKMQDTMEENSESALRKRIREDRKATTAQKVQQMKQRLNENERKRKRWLYWQPILTKMGFMSVILVGAFVGWTLFFQQNAL
B2: SHP-2 (protein tyrosine phosphatase immunoprecipitated from HeLa lysates) (protein)
chain: TSRRWFHPNITGVEAENLLLTRGVDGSFLARPSKSNPGDFTLSVRRNGAVTHIKIQNTGDYYDLYGGEKFATLAELVQYYMEHHGQLKEKNGDVIELKYPLNCADPTSERWFHGHLSGKEAEKLLTEKGKHGSFLVRESQSHPGDFVLSVRTGDDKGESNDGKSKVTHVMIRCQELKYDVGGGERFDSLTDLVEHYKKNPMVETLGTVLQLKQPLNTTRINAAEIESRVRELSKLAETTDKVKQGFWEEFETLQQQECKLLYSRKEGQRQENKNKNRYKNILPFDHTRVVLHDGDPNEPVSDYINANIIMPEFETKCNNSKPKKSYIATQGCLQNTVNDFWRMVFQENSRVIVMTTKEVERGKSKCVKYWPDEYALKEYGVMRVRNVKESAAHDYTLRELKLSKVGQGNTERTVWQYHFRTWPDHGVPSDPGGVLDFLEEVHHKQESIMDAGPVVVHCSAGIGRTGTFIVIDILIDIIREKGVDCDIDVPKTIQMVRSQRSGMVQTEAQYRFIYMAVQHYIETLQRRIEEEQKSKRKGHEYTNIKYSLADQTSGDQSPLPPCTPTPPCAEMREDSARVYENVGLMQQQKSFR

What was measured:
[1] = target: T1, α2 peptide KLGFFKRKYEKMTKNPDEIDETTELSS …
[2] = target: T2, synthetic integrin α1 cytoplasmic tail …

Row | Protein | catalytic activity of immunoprecipitated TCPTP (diFMUP substrate) [1] | catalytic activity of immunoprecipitated TCPTP (diFMUP substrate) [2] | phosphatase activity of immunoprecipitated SHP-2 (diFMUP substrate) [1] | phosphatase activity of immunoprecipitated SHP-2 (diFMUP substrate) [2]
1 | B1 | the corresponding α2 tail peptide had no effect | increased 2.95±0.48 fold | – | –
2 | B2 | – | – | another protein tyrosine phosphatase, SHP-2, was not activated by either peptide | another protein tyrosine phosphatase, SHP-2, was not activated by either peptide
